Reference: the supplement of paper PMC9112550, “Optimization of the antimicrobial peptide Bac7 by deep mutational scanning” (BMC Biology, 2022)

tested on: Escherichia coli TOP10; experiment: shrunken log2 fold change of peptide-encoding DNA abundance (4.5 h post-induction vs induction); higher = less antimicrobial activity (less host growth inhibition); settings: time post-induction: 4.5 h; library: site-saturation at positions 5, 18, 19, 20
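Note: peptides expressed intracellularly from a pBAD plasmid library in pooled LB shake-flask culture, induced with 0.3% L-arabinose, DNA abundance read by NGS, three biological replicates, DESeq2 with apeglm shrinkage.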

| Sequence | shrunken log2 fold change |
| --- | --- |
| RRIRHRPPRLPRPRPRPECMPRP | -0.0379 |
| RRIRYRPPRLPRPRPRPTMDPRP | -0.67 |
| RRIRRRPPRLPRPRPRPWFHPRP | 0.0067 |
| RRIRYRPPRLPRPRPRPPQLPRP | -0.371 |
| RRIRFRPPRLPRPRPRPFFTPRP | -0.227 |
| RRIRLRPPRLPRPRPRPVLMPRP | -0.04 |
| RRIRWRPPRLPRPRPRPHQRPRP | -0.0218 |
| RRIRVRPPRLPRPRPRPAHYPRP | -0.113 |
| RRIRRRPPRLPRPRPRPSMKPRP | -0.434 |
| RRIRSRPPRLPRPRPRPRYLPRP | -0.329 |
| RRIRRRPPRLPRPRPRPQEQPRP | -0.0166 |
| RRIRCRPPRLPRPRPRPKLNPRP | -0.265 |
| RRIRIRPPRLPRPRPRPCHAPRP | -0.618 |
| RRIRARPPRLPRPRPRPAILPRP | -0.087 |
| RRIRWRPPRLPRPRPRPDQNPRP | -0.0342 |
| RRIRFRPPRLPRPRPRPSKDPRP | -0.347 |
| RRIRTRPPRLPRPRPRPNEPPRP | -0.102 |
| RRIRSRPPRLPRPRPRPGFQPRP | -0.114 |
| RRIRGRPPRLPRPRPRPYPRPRP | 0.162 |
| RRIRCRPPRLPRPRPRPKNHPRP | -0.461 |
| RRIRERPPRLPRPRPRPVCAPRP | 0.415 |
| RRIRDRPPRLPRPRPRPFIEPRP | 0.0849 |
| RRIRCRPPRLPRPRPRPSSFPRP | -0.0694 |
| RRIRCRPPRLPRPRPRPYRLPRP | -0.0743 |
| RRIRIRPPRLPRPRPRPCMSPRP | -0.347 |

| Sequence | shrunken log2 fold change |
| --- | --- |
| RRIRTRPPRLPRPRPRPWPGPRP | 0.0416 |
| RRIRDRPPRLPRPRPRPLCWPRP | 0.824 |
| RRIRLRPPRLPRPRPRPCRIPRP | -0.0656 |
| RRIRSRPPRLPRPRPRPETVPRP | 0.211 |
| RRIRWRPPRLPRPRPRPFFMPRP | -0.108 |
| RRIRWRPPRLPRPRPRPIDTPRP | 0.00736 |
| RRIRKRPPRLPRPRPRPCPIPRP | -0.212 |
| RRIRFRPPRLPRPRPRPGEHPRP | -0.0294 |
| RRIRIRPPRLPRPRPRPHKEPRP | 0.0692 |
| RRIRNRPPRLPRPRPRPFDCPRP | 0.0101 |
| RRIRWRPPRLPRPRPRPYCMPRP | -0.401 |
| RRIRHRPPRLPRPRPRPPMWPRP | 1.04 |
| RRIRMRPPRLPRPRPRPYTYPRP | -0.398 |
| RRIRIRPPRLPRPRPRPADRPRP | -0.123 |
| RRIRGRPPRLPRPRPRPCPSPRP | 0.0189 |
| RRIRQRPPRLPRPRPRPDMEPRP | 0.104 |
| RRIRHRPPRLPRPRPRPECYPRP | -0.0176 |
| RRIRSRPPRLPRPRPRPDIWPRP | 0.00423 |
| RRIRSRPPRLPRPRPRPQICPRP | -0.0872 |
| RRIRSRPPRLPRPRPRPGFGPRP | 0.463 |
| RRIRVRPPRLPRPRPRPMEFPRP | -0.03 |
| RRIRPRPPRLPRPRPRPHSMPRP | -0.408 |
| RRIRYRPPRLPRPRPRPNERPRP | -0.0497 |
| RRIRQRPPRLPRPRPRPVPIPRP | -0.0341 |
| RRIRVRPPRLPRPRPRPSETPRP | -0.14 |

| Sequence | shrunken log2 fold change |
| --- | --- |
| RRIRIRPPRLPRPRPRPVAEPRP | 0.243 |
| RRIRTRPPRLPRPRPRPGTLPRP | 0.16 |
| RRIRVRPPRLPRPRPRPAKSPRP | -0.112 |
| RRIRVRPPRLPRPRPRPWHSPRP | -0.435 |
| RRIRPRPPRLPRPRPRPWLKPRP | -0.371 |
| RRIRVRPPRLPRPRPRPVIKPRP | -0.138 |
| RRIRCRPPRLPRPRPRPTMMPRP | -0.0339 |
| RRIRARPPRLPRPRPRPYVCPRP | -0.255 |
| RRIRDRPPRLPRPRPRPPSHPRP | -0.203 |
| RRIRNRPPRLPRPRPRPKMYPRP | -0.0156 |
| RRIRARPPRLPRPRPRPQMCPRP | 0.00812 |
| RRIRDRPPRLPRPRPRPPPSPRP | 0.838 |
| RRIRARPPRLPRPRPRPYFYPRP | -0.619 |
| RRIRRRPPRLPRPRPRPHWKPRP | -0.00963 |
| RRIRMRPPRLPRPRPRPLEPPRP | 0.261 |
| RRIRVRPPRLPRPRPRPICEPRP | 0.058 |
| RRIRARPPRLPRPRPRPNFGPRP | 0.324 |
| RRIRERPPRLPRPRPRPICHPRP | -0.187 |
| RRIRMRPPRLPRPRPRPYKKPRP | -0.161 |
| RRIRLRPPRLPRPRPRPYGLPRP | -0.0893 |
| RRIRSRPPRLPRPRPRPCARPRP | 0.00657 |
| RRIRQRPPRLPRPRPRPEFWPRP | 0.238 |
| RRIRVRPPRLPRPRPRPSDFPRP | -0.394 |
| RRIRCRPPRLPRPRPRPGHIPRP | -0.458 |
| RRIRTRPPRLPRPRPRPGRPPRP | 0.217 |

| Sequence | shrunken log2 fold change |
| --- | --- |
| RRIRYRPPRLPRPRPRPHMQPRP | -1.07 |
| RRIRQRPPRLPRPRPRPDEFPRP | -0.0132 |
| RRIRSRPPRLPRPRPRPEDGPRP | 0.0117 |
| RRIRCRPPRLPRPRPRPIMLPRP | -0.587 |
| RRIRNRPPRLPRPRPRPAFEPRP | 0.0155 |
| RRIRSRPPRLPRPRPRPTCSPRP | 0.0811 |
| RRIRDRPPRLPRPRPRPMADPRP | 0.523 |
| RRIRVRPPRLPRPRPRPNPQPRP | 0.000771 |
| RRIRWRPPRLPRPRPRPQDLPRP | 0.107 |
| RRIRERPPRLPRPRPRPNLIPRP | -0.421 |
| RRIRDRPPRLPRPRPRPWDMPRP | -0.133 |
| RRIRHRPPRLPRPRPRPLLTPRP | -0.338 |
| RRIRKRPPRLPRPRPRPFFYPRP | 0.0957 |
| RRIRRRPPRLPRPRPRPTGHPRP | 0.236 |
| RRIRVRPPRLPRPRPRPSWNPRP | -0.371 |
| RRIRWRPPRLPRPRPRPFDYPRP | -0.554 |
| RRIRLRPPRLPRPRPRPPNMPRP | -0.076 |
| RRIRMRPPRLPRPRPRPQRHPRP | 0.348 |
| RRIRERPPRLPRPRPRPPMDPRP | -0.214 |
| RRIRKRPPRLPRPRPRPPMKPRP | 0.135 |
| RRIRERPPRLPRPRPRPYFTPRP | -0.971 |
| RRIRNRPPRLPRPRPRPLQDPRP | -0.247 |
| RRIRARPPRLPRPRPRPQVFPRP | 0.278 |
| RRIRGRPPRLPRPRPRPWLDPRP | 0.0661 |
| RRIRTRPPRLPRPRPRPHSFPRP | -0.0168 |

| Sequence | shrunken log2 fold change |
| --- | --- |
| RRIRTRPPRLPRPRPRPAPIPRP | 0.0613 |
| RRIRRRPPRLPRPRPRPACFPRP | 0.456 |
| RRIRKRPPRLPRPRPRPVSFPRP | -0.0599 |
| RRIRRRPPRLPRPRPRPTAWPRP | 0.288 |
| RRIRERPPRLPRPRPRPGIPPRP | -0.421 |
| RRIRPRPPRLPRPRPRPGLTPRP | 0.0985 |
| RRIRLRPPRLPRPRPRPHDGPRP | 0.0171 |
| RRIRGRPPRLPRPRPRPVHKPRP | 0.518 |
| RRIRTRPPRLPRPRPRPMGWPRP | 0.293 |
| RRIRPRPPRLPRPRPRPAEIPRP | 0.0712 |
| RRIRVRPPRLPRPRPRPPDTPRP | 0.166 |
| RRIRRRPPRLPRPRPRPNAYPRP | 0.0409 |
| RRIRERPPRLPRPRPRPVSWPRP | 0.368 |
| RRIRSRPPRLPRPRPRPQQVPRP | 0.0131 |
| RRIRYRPPRLPRPRPRPYIEPRP | -0.469 |
| RRIRQRPPRLPRPRPRPDWLPRP | -0.102 |
| RRIRERPPRLPRPRPRPDGYPRP | 0.0107 |
| RRIRHRPPRLPRPRPRPIPLPRP | -0.193 |
| RRIRVRPPRLPRPRPRPPYGPRP | 0.024 |
| RRIRDRPPRLPRPRPRPDRDPRP | -0.0722 |
| RRIRMRPPRLPRPRPRPTRAPRP | 1.42 |
| RRIRMRPPRLPRPRPRPSYTPRP | -0.38 |
| RRIRSRPPRLPRPRPRPSIIPRP | -0.253 |
| RRIRRRPPRLPRPRPRPFHQPRP | -0.191 |
| RRIRARPPRLPRPRPRPRGWPRP | 1.07 |

| Sequence | shrunken log2 fold change |
| --- | --- |
| RRIRQRPPRLPRPRPRPHTIPRP | -0.412 |
| RRIRLRPPRLPRPRPRPYFIPRP | -1.11 |
| RRIRERPPRLPRPRPRPFACPRP | -0.433 |
| RRIRWRPPRLPRPRPRPGMYPRP | 0.0165 |
| RRIRTRPPRLPRPRPRPVDWPRP | 0.0292 |
| RRIRWRPPRLPRPRPRPDGVPRP | -0.1 |
| RRIRKRPPRLPRPRPRPQNDPRP | -0.0578 |
| RRIRDRPPRLPRPRPRPTETPRP | -0.000924 |
| RRIRVRPPRLPRPRPRPDQDPRP | 0.0425 |
| RRIRTRPPRLPRPRPRPEDAPRP | 0.0648 |
| RRIRCRPPRLPRPRPRPKFTPRP | -0.391 |
| RRIRPRPPRLPRPRPRPPFPPRP | 0.454 |
| RRIRARPPRLPRPRPRPMSHPRP | 0.148 |
| RRIRERPPRLPRPRPRPHKPPRP | -0.519 |
| RRIRYRPPRLPRPRPRPFIKPRP | -0.263 |
| RRIRSRPPRLPRPRPRPCRIPRP | -0.263 |
| RRIRERPPRLPRPRPRPAFPPRP | 0.295 |
| RRIRQRPPRLPRPRPRPPCHPRP | 0.0591 |
| RRIRDRPPRLPRPRPRPIIHPRP | -0.483 |
| RRIRRRPPRLPRPRPRPPKHPRP | 0.39 |
| RRIRKRPPRLPRPRPRPHDDPRP | 0.171 |
| RRIRMRPPRLPRPRPRPFYNPRP | -0.141 |
| RRIRKRPPRLPRPRPRPFLAPRP | 0.169 |
| RRIRLRPPRLPRPRPRPLVPPRP | -0.258 |
| RRIRDRPPRLPRPRPRPKAHPRP | 0.0408 |
